Among the data in patent US20100209346A1 are detection limit (minimum amount of antigen visible) values, retold here.

What all share (test): dot blot; antigen dilution series 100-0.01 pmol on nitrocellulose
Experiment [1] deals with Aβ(1-42) fibril preparation of example 27 (human).
The target of experiment [2] is Aβ(1-42) oligomer B preparation of example 6b (oligomers of human amyloid β(1-42) protein with apparent molecular weights of 38 kDa and 48 kDa) (human).
For experiment [3], the target named is HFIP-treated Aβ(1-42) monomer of example 1a (human).

Consider monoclonal antibody 6E10 (Signet), for which the detection limit (minimum amount of antigen visible) in experiment [1] came to 1 pmol; in experiment [2], 0.1 pmol; in experiment [3] it was 0.1 pmol.
